Target: Human Flag-tagged RER1 TP37_38AA mutant (human)
Experiment: co-IP; SH-SY5Y and U251 cells co-transfected with Flag-tagged RER1 (wild type or mutant) and NEDD4-2-HA, with or without Tg (0.5 uM); gentle RIPA lysis buffer; anti-Flag or anti-HA on Protein A/G magnetic beads, 4°C overnight; immunoblot

Human Flag-tagged RER1 TP37_38AA mutant (human), sequence (P78508 whole entry, change not shown): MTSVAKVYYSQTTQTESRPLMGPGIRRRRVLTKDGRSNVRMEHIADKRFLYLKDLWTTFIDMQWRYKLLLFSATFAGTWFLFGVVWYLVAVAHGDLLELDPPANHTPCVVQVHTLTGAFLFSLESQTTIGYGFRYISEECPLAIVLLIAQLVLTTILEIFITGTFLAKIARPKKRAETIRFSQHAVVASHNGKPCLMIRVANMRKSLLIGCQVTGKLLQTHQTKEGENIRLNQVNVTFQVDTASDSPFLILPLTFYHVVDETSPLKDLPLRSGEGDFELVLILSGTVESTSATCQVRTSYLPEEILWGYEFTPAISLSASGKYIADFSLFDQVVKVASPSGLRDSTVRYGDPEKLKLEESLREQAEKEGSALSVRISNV

“Human HA-tagged NEDD4-2 (from UniProt Q96PU5-5 1-955) (natural protein)” was tested, and the interaction in percent of wild-type RER1 (co-IP densitometry) was 30 to 40%.
